Assay results reported in patent publication US20240383974A1 (BETTA PHARMACEUTICALS, published 2024).
Like-named read-outs stand apart in the source and are kept apart here. Values belong to the binder of their own block, whether it stands above or below them.

What was measured:
human PD-L1 [1] = biological target: T1, human PD-L1 (human, UniProt Q9NZQ7 19-290); assay: FACS on MC38-hPD-L1 cells
T1 construct: whole, on cells; also called hPD-L1; PD-L1 antigen on MDA-MB-231 cells

human PD-L1 [2] = biological target: T1, human PD-L1; assay: cell-based or functional assay
[3] = biological target: T2, GARP-TGF-β complex (293-GARP/TGFβ stably transfected cells) (UniProt Q14392 20-662; P01137 30-390); assay: FACS on 293-GARP/TGFβ cells
T2 construct: whole, on cells; Complex of GARP and (latent) TGF-β on the cell surface; also called 293-GARP/TGFβ cell; 293F-GAPR/TGFβ/αvβ6 cells

[4] = biological target: T2, GARP-TGF-β complex (293-GARP/TGFβ …); assay: cell-based or functional assay
[5] = biological target: T2, GARP-TGF-β complex (293-GARP/TGFβ …); assay: FACS on 293-GARP/TGFβ cells; remark: listed apart in the source
[6] = biological target: T3, GARP (CHO-K1-GARP cell line that overexpresses GARP) (UniProt Q14392 20-662, limits assumed); assay: FACS on CHO-K1-GARP cells
T3 construct: whole, on cells; also called GARP protein
T3 sequence (looked up): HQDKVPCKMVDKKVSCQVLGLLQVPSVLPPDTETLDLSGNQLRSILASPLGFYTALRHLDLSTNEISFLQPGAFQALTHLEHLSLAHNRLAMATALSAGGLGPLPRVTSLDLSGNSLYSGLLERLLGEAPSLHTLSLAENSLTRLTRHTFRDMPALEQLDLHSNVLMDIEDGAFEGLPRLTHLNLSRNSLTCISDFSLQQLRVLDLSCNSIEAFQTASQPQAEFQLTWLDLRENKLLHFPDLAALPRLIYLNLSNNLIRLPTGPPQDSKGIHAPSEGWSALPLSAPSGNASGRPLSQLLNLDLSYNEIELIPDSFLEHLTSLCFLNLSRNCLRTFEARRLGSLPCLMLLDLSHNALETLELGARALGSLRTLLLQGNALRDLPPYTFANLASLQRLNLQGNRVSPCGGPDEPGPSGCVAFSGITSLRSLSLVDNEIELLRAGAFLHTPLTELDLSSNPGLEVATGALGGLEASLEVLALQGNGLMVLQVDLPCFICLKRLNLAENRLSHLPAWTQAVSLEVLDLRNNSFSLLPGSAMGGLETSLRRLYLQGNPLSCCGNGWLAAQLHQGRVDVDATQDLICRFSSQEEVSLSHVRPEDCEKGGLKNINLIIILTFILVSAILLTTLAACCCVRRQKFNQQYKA

[7] = biological target: T4, human transforming growth factor β1 (human, UniProt P01137 279-390); assay: ELISA, plate-coated hTGF-β1
T4 construct: Coated on the ELISA plate at 100 ng/well; also called hTGF-β1; TGF-β

[8] = biological target: T3, GARP (CHO-K1-GARP cell line that …); assay: FACS on CHO-K1-GARP cells; remark: listed apart in the source
[9] = biological target: T2, GARP-TGF-β complex (293-GARP/TGFβ …); assay: FACS on 293-GARP/TGFβ cells; remark: listed apart in the source

T1 sequence (Q9NZQ7 19-290): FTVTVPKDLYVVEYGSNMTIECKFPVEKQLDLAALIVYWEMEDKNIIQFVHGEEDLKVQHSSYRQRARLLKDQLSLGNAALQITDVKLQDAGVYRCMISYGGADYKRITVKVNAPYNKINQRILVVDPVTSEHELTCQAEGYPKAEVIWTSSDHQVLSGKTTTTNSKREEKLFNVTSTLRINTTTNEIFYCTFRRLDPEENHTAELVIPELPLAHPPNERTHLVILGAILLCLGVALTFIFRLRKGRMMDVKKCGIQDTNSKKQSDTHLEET
T4 sequence (P01137 279-390 limits assumed): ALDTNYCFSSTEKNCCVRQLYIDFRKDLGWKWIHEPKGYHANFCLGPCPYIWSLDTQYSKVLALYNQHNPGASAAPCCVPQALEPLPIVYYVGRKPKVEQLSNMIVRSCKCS

B2: antibody m305 (antibody, V domains shown)
VH: EVQLQQSGPELVKPGASVKIPCKTSGYTFTDYNMNWVKQSHGKSLEWIGDINPYSGGTIYNQKFKGKAILTVDKSSSTAYMELRSLTSEDTGIYYCARVSKGSGDYWGQGTTLTVSS
VL: DIQMTQSPSSLSASLGERVSLTCRASQEISGYLSWLQQKPDGTIKRLIYAASTLDSGVPKRFSGSRSGSDYSLTISSLESEDFADYYCLQYASYPTCTFGGGTKLEIK
- EC50 [5]: 4.1 nM
- EC50 [6]: < 1 nM

B3: antibody m107 (antibody, V domains shown)
VH: QVHLQQSGAALARPGASVKMSCKASGYTFSAYTIHWVKQRPGQGLEWIGYINPSNDFAKYIQKFKDKATLTADKSSSTAYMQLNSLTSEDSAIYYCARVDYYGGSYRWYLDVWGAGTTVTVSS
VL: DIVLTQSPATLSVTPGDSVSLSCRASQSISNNLHWYQQKSHESPRLLIKYTSQSISGIPSRFSGSGSGTDFTLSINSVETEDFGMYFCQQSNSWPIFTFGSGTKLEIK
- EC50 [7]: 0.021 nM
- EC50 [5]: 3.2 nM
- EC50 [6]: > 2 nM

B5: antibody m212-hu (antibody, V domains shown)
VH: QVQLVQSGAEVKKPGSSVKVSCKASGYIFTSYWMHWVKQAPGQGLEWIGRIAPNSGGAHYHEKFKTKVTITADKSTSTAYMEFSSLRSEDTAVYYCARGNYGMDYWGQGTAVTVSS
VL: DIQMTQSPSSLSASVGDRVTITCRASQDISNYLNWYQQKPGGAPELLIYYTSTLHSGVPSRFSGSGSGTDYTLTISSLQPEDFATYFCQQVNTLPFTFGSGTKLEIK
notes: Humanized m212
- EC50 [8]: 1.4 nM
- binding result (human PD-L1 [1]): no binding (tested: initial concentration 200 nM)
- EC50 [9]: < 2 nM

B7: antibody m212 (antibody, V domains shown)
VH: QVQLQQPGPELVKPGASVKLTCKASGYIFTSYWMHWVKRGPGRGLEWIGRIAPNSGGAHYHEKFKTKVTLTVDKPSSTAYMEFSSLTSEDSAVYYCARGNYGMDYWGQGTAVTVSS
VL: DIQMTQTTSSLSASLGDRVTISCRASQDISNYLNWYQQKPDGTVELLIYYTSTLHSGVPSRFSGSGSGTDYSLTISNLEQEDIATYFCQQVNTLPFTFGSGTKLEII
notes: Hybridoma-derived, expressed in mammalian cells; hIgG1 and hIgG4 as controls
- EC50 [5]: < 2 nM
- EC50 [6]: 0.46 nM

Second part, the binder after the results:

- EC50 (human PD-L1 [1]): 0.39 nM
- IC50(nM), PD-1/PD-L1 NFAT-luciferase reporter (293T-hPD-L1 with Jurkat-PD1-CD3zeta-NFAT-Luc2 cells) (human PD-L1 [2]): 13 nM
- EC50 [3]: 5.4 nM
- IC50(nM), TGFβ reporter gene blocking (293F-GAPR/TGFβ/αvβ6 cells with 293-SBE-Luciferase cells) [4]: 1.7 nM
B1: b202-L-D2hu (bispecific antibody, human IgG1, kappa)
heavy: not shown
light: DIVLTQSPDSLAVSLGERATINCRASESVTIIGTNLIQWFQQKPGQPPKLLIYHASNLETGVPDRFSGSGSRTDFTLTISSLQAEDVAVYYCLQSRQIPRTFGGGTKVEIKRTVAAPSVFIFPPSDEQLKSGTASVVCLLNNFYPREAKVQWKVDNALQSGNSQESVTEQDSKDSTYSLSSTLTLSKADYEKHKVYACEVTHQGLSSPVTKSFNRGECGGGGSGGGGSGGGGSGGGGSEVQLVESGGGLVQPGGSLRLSCAASGRDFLTYGMGWFRQAPGKGLEFVASINWSGSMTYYADSVKGRFTISRDNAKNSVYLQMNSLRAEDTAVYICAARRGAVTYASSNEYEHWGQGTQVTVSS
notes: also called b202-hu-L-D2hu

- EC50 [8]: 0.45 nM
- EC50 [9]: 2.1 nM
B4: antibody m305-hu (antibody, V domains shown)
VH: QVQLVQSGAEVKKPGASVKVSCKTSGYTFTDYNMNWVKQAPGQGLEWIGDINPYSGGTIYNQKFKGRATLTTDTSTSTAYMELRSLRSDDTAVYYCARVSKGSGDYWGQGTLVTVSS
VL: DIQMTQSPSSLSASVGDRVTITCRASQEISGYLSWLQQKPGGAPKRLIYAASTLDSGVPSRFSGSRSGTDYTLTISSLQPEDFATYYCLQYASYPTCTFGGGTKVEIK
notes: Humanized m305

- EC50 (human PD-L1 [1]): 0.34 nM
- IC50(nM), PD-1/PD-L1 NFAT-luciferase reporter (293T-hPD-L1 with Jurkat-PD1-CD3zeta-NFAT-Luc2 cells) (human PD-L1 [2]): 7.8 nM
- EC50 [3]: 5.6 nM
- IC50(nM), TGFβ reporter gene blocking (293F-GAPR/TGFβ/αvβ6 cells with 293-SBE-Luciferase cells) [4]: 4.9 nM
B6: b202-hu-H-D2hu (bispecific antibody, human IgG1, kappa)
heavy: not shown
light: DIVLTQSPDSLAVSLGERATINCRASESVTIIGTNLIQWFQQKPGQPPKLLIYHASNLETGVPDRFSGSGSRTDFTLTISSLQAEDVAVYYCLQSRQIPRTFGGGTKVEIKRTVAAPSVFIFPPSDEQLKSGTASVVCLLNNFYPREAKVQWKVDNALQSGNSQESVTEQDSKDSTYSLSSTLTLSKADYEKHKVYACEVTHQGLSSPVTKSFNRGEC
notes: also called b202-H-D2hu
